From the supplement of paper PMC7877785
± gives the uncertainty stated by the source.

Test: self-splicing fitness, log relative to wild type (ln ratio); higher = more splicing; Tetrahymena group I intron in knt gene, E. coli kanamycin selection, DiMSum; sequences stand for … in CUCUCU…GGAGGGAAAAGUUAUCAGGCAUGCACCUGGUAGCUAGUCUUUAAACCAAUAGAUUGCAUCGGUUUAAAAGGCAAGACCGUCAAAUUGCGGGAAAGGGGUCAACAGCCGUUCAGUACCAAGUCUCAGGGGAAACUUUGAGAUGGCCUUGCAAAGGGUAUGGUAAUAAGCUGACGGACAUGGUCCUAACCACGCAGCCAAGUCCUAAGUCAACAGAUCUUCUGUUGAUAUGGAUGCAGUUCACAGACUAAAUGUCGGUCGGGGAAGAUGUAUUCUUCUCAUAAGAUAUAGUCGGACCUCUCCUUAAUGGGAGCUAGCGGAUGAAGUGAUGCAACACUGGAGCCGCUGGGAACUAAUUUGUAUGCGAAAGUAUAUUGAUUAGUUUUGGAGUACUCGUGGUCG
In short: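 Pooled colonies went to amplicon sequencing on an Illumina HiSeq 2500 after six replicate transformations. The plates were LB agar with 100 μg/mL carbenicillin, 50 μM IPTG and 0.2% rhamnose, with or without 25 μg/mL kanamycin, incubated overnight at 37°C or 30°C. The E. coli BL21(DE3) library had all eight P1ex-region intron nucleotides randomised, the intron placed in the knt kanamycin-resistance gene on pET-22b(+). DiMSum fitness is the error-weighted combination of replicate fold changes, kanamycin against none, normalised to wild type.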

Sequence | self-splicing fitness (ln) (30 °C) | self-splicing fitness (ln) (37 °C)
CCCGAGCAAUAUUACGCGAU | -1.12 ± 0.19 | -2.5 ± 0.34
CCCGAGCAAUAUUACGCUCA | -2.87 ± 0.32 | -2.7 ± 0.36
CCCGAGCAAUAUUACGGAAG | -3.91 ± 0.24 | -2.29 ± 0.15
CCCGAGCAAUAUUACGGCGA | -2.7 ± 0.2 | -1.19 ± 0.12
CCCGAGCAAUAUUACGGUCC | -2.99 ± 0.26 | -2.61 ± 0.22
CCCGAGCAAUAUUACGUCAC | -2.9 ± 0.37 | -2.27 ± 0.49
CCCGAGCAAUAUUACGUCGG | -3.02 ± 0.25 | -2.41 ± 0.32
CCCGAGCAAUAUUACGUUAC | -3.01 ± 0.35 | -2.37 ± 0.32
CCCUAGCAAUAUUACGACAU | -3.809 ± 0.024 | -2.93 ± 0.039
CCCUAGCAAUAUUACGACGC | -3.34 ± 0.32 | -2.53 ± 0.39
CCCUAGCAAUAUUACGACUC | -4.18 ± 0.28 | -2.71 ± 0.24
CCCUAGCAAUAUUACGAUAC | -2.76 ± 0.38 | 
CCCUAGCAAUAUUACGAUCA | -3.03 ± 0.25 | -2.22 ± 0.24
CCCUAGCAAUAUUACGAUCC |  | -1.26 ± 0.45
CCCUAGCAAUAUUACGAUGU | -3.58 ± 0.22 | -2.55 ± 0.18
CCCUAGCAAUAUUACGCACC |  | -2.9 ± 0.48
CCCUAGCAAUAUUACGCCCU | -3.61 ± 0.35 | -1.54 ± 0.23
CCCUAGCAAUAUUACGCCGC | -3.7 ± 0.25 | -1.96 ± 0.27
CCCUAGCAAUAUUACGCUGA | -3.14 ± 0.23 | -2.85 ± 0.38
CCCUAGCAAUAUUACGGGGC | -3.47 ± 0.15 | -2.15 ± 0.22
CCCUAGCAAUAUUACGGUAC | -4.33 ± 0.34 | -3.04 ± 0.32
CCCUAGCAAUAUUACGUAAA |  | -2.22 ± 0.32
CCCUAGCAAUAUUACGUAAC | -3.66 ± 0.27 | -1.33 ± 0.18
CCCUAGCAAUAUUACGUACG | -2.86 ± 0.18 | -2.81 ± 0.27
CCCUAGCAAUAUUACGUAGC | -2.65 ± 0.17 | -2.75 ± 0.24

Sequence | self-splicing fitness (ln) (30 °C) | self-splicing fitness (ln) (37 °C)
CCCUAGCAAUAUUACGUGCC | -3.52 ± 0.22 | -2.2 ± 0.24
CCGAAGCAAUAUUACGACAU | -3.977 ± 0.028 | -2.82 ± 0.04
CCGAAGCAAUAUUACGCAUA | -2.88 ± 0.27 | -3.64 ± 0.31
CCGAAGCAAUAUUACGCCCU |  | -1.26 ± 0.46
CCGAAGCAAUAUUACGCCUA | -2.94 ± 0.22 | -2.62 ± 0.28
CCGAAGCAAUAUUACGCGAC | -3.1 ± 0.2 | -1.48 ± 0.19
CCGAAGCAAUAUUACGCGCC | -2.58 ± 0.23 | -2.27 ± 0.3
CCGAAGCAAUAUUACGCGUA | -3.7 ± 0.23 | -2.84 ± 0.2
CCGAAGCAAUAUUACGCGUC | -3.28 ± 0.25 | -3.2 ± 0.32
CCGAAGCAAUAUUACGCUAA | -3.2 ± 0.34 | -2.7 ± 0.43
CCGAAGCAAUAUUACGCUGC | -2.89 ± 0.34 | -2.4 ± 0.45
CCGAAGCAAUAUUACGCUUG | -3.79 ± 0.33 | -2.26 ± 0.22
CCGAAGCAAUAUUACGGAAA | -3.26 ± 0.26 | -3.49 ± 0.31
CCGAAGCAAUAUUACGGCAG | -2.86 ± 0.15 | -1.44 ± 0.16
CCGAAGCAAUAUUACGGCGU | -3.6 ± 0.17 | -2.79 ± 0.17
CCGAAGCAAUAUUACGGCUC | -3.57 ± 0.32 | -2.81 ± 0.35
CCGAAGCAAUAUUACGGGCU | -4.21 ± 0.23 | -2.36 ± 0.2
CCGAAGCAAUAUUACGGUUG | -1.84 ± 0.059 | -0.955 ± 0.072
CCGAAGCAAUAUUACGUAGG | -3.15 ± 0.17 | -2.65 ± 0.23
CCGAAGCAAUAUUACGUAGU | -3.44 ± 0.17 | -3.21 ± 0.23
CCGAAGCAAUAUUACGUCUC | -3.9 ± 0.28 | -3.47 ± 0.2
CCGAAGCAAUAUUACGUUCU | -3.84 ± 0.26 | -3.37 ± 0.24
CCGCAGCAAUAUUACGAAUA | -3.37 ± 0.38 | -2.62 ± 0.38
CCGCAGCAAUAUUACGAAUC | -1.78 ± 0.17 | 
CCGCAGCAAUAUUACGAAUG | -1.2 ± 0.063 | -0.305 ± 0.065
